{"source": "patent US6416738B1", "about": "“Pretargeting methods and compounds” (NeoRx Corporation, priority 1973, dated 2002)", "molecules": {"B1": {"name": "NR-LU-10: 150 kilodalton IgG2b monoclonal antibody recognizing an approximately 40 kilodalton glycoprotein antigen expressed on most carcinomas (antibody, V domains shown)", "VH": "EVQLQQSGAELVKPGASVRLSCTASGFNIKDTYMHWVIERPEQGLEWIGRIDPANGNTKCDPKFQGKATITADTSSNTAYLQLSSLTSEDTAVYYCSREVLTGTWSLDYWGQGTSVTVSS", "VL": "DIQMIQSPSSMFASLGDRVSLSCRASQGIRGNLDWYQQKPGGTIKLLIYSTSNLNSGVPSRFSGSGSGSDYSLTISSLDSEDFADYYCLQRNAYPYTFGGGTKLEIK"}}, "key": {"[1]": {"biological_target": "T1, NR-LU-10 antigen (Homo sapiens, UniProt P16422)", "T1 construct": "Positive NR-LU-10 tissue reactivity indicates NR-LU-10 antigen expression by such tissues; from tissue; host or cells: carcinoma and normal tissue specimens", "T1 sequence (P16422 24-314)": "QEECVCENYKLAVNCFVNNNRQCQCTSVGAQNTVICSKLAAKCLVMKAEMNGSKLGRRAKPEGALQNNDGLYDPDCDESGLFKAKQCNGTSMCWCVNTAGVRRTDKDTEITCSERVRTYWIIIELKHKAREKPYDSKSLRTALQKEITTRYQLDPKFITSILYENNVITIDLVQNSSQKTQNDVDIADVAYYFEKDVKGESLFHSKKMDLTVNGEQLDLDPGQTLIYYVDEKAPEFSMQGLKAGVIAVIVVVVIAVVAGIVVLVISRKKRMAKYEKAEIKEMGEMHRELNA", "assay": "NR-LU-10 tumor tissue reactivity (Table A)", "format": "binding", "source_text": "Radioimmunoassays, immunoprecipitation and Fluorescence-Activated Cell Sorter (FACS) analysis were used to obtain reactivity profiles of NR-LU-10. The NR-LU-10 target antigen was present on either fixed cultured cells or in detergent extracts of various types of cancer cells. For example, the NR-LU-10 antigen is found in small cell lung, non-small cell lung, colon, breast, renal, ovarian, pancreatic, and other carcinoma tissues. Tumor reactivity of the NR-LU-10 antibody is set forth in Table A, while NR-LU-10 reactivity with normal tissues is set forth in Table B. The values in Table B are obtained as described below. Positive NR-LU-10 tissue reactivity indicates NR-LU-10 antigen expression by such tissues."}, "[2]": {"assay": "Human clinical trials of NR-LU-10", "format": "in vivo", "details": "over 565 patients", "protocol": "The hybridoma secreting NR-LU-10 was developed by fusing mouse splenocytes immunized with intact cells of a human small cell lung carcinoma with P3×63/Ag8UI murine myeloma cells. After establishing a seed lot, the hybridoma was grown via in vitro cell culture methods, purified and verified for purity and sterility."}}, "data": [{"molecule": "B1", "values": [{"measurement": "# Pos/Exam", "setting": "[1]; Breast Adenocarcinoma", "value": "23/23"}, {"measurement": "Intensity Avg. (rated 0-3)", "setting": "[1]; Breast Adenocarcinoma", "value": 2.9}, {"measurement": "Percent Avg. (cells stained)", "setting": "[1]; Breast Adenocarcinoma", "value": 97, "unit": "%"}, {"measurement": "Uniformity Avg. (rated 0-3)", "setting": "[1]; Breast Adenocarcinoma", "value": 2.8}, {"measurement": "# Pos/Exam", "setting": "[1]; Colon Carcinoma", "value": "12/12"}, {"measurement": "Intensity Avg. (rated 0-3)", "setting": "[1]; Colon Carcinoma", "value": 2.9}, {"measurement": "Percent Avg. (cells stained)", "setting": "[1]; Colon Carcinoma", "value": 98, "unit": "%"}, {"measurement": "Uniformity Avg. (rated 0-3)", "setting": "[1]; Colon Carcinoma", "value": 2.9}, {"measurement": "# Pos/Exam", "setting": "[1]; Liposarcoma", "value": "0/2"}, {"measurement": "Intensity Avg. (rated 0-3)", "setting": "[1]; Liposarcoma", "value": 0}, {"measurement": "Percent Avg. (cells stained)", "setting": "[1]; Liposarcoma", "value": 0, "unit": "%"}, {"measurement": "Uniformity Avg. (rated 0-3)", "setting": "[1]; Liposarcoma", "value": 0}, {"measurement": "# Pos/Exam", "setting": "[1]; Lung Adenocarcinoma", "value": "8/8"}, {"measurement": "Intensity Avg. (rated 0-3)", "setting": "[1]; Lung Adenocarcinoma", "value": 3}, {"measurement": "Percent Avg. (cells stained)", "setting": "[1]; Lung Adenocarcinoma", "value": 100, "unit": "%"}, {"measurement": "Uniformity Avg. (rated 0-3)", "setting": "[1]; Lung Adenocarcinoma", "value": 2.2}, {"measurement": "# Pos/Exam", "setting": "[1]; Lung Small Cell Carcinoma", "value": "2/2"}, {"measurement": "Intensity Avg. (rated 0-3)", "setting": "[1]; Lung Small Cell Carcinoma", "value": 3}, {"measurement": "Percent Avg. (cells stained)", "setting": "[1]; Lung Small Cell Carcinoma", "value": 100, "unit": "%"}, {"measurement": "Uniformity Avg. (rated 0-3)", "setting": "[1]; Lung Small Cell Carcinoma", "value": 2}, {"measurement": "# Pos/Exam", "setting": "[1]; Lung Squamous Cell Carcinoma", "value": "8/8"}, {"measurement": "Intensity Avg. (rated 0-3)", "setting": "[1]; Lung Squamous Cell Carcinoma", "value": 2.3}, {"measurement": "Percent Avg. (cells stained)", "setting": "[1]; Lung Squamous Cell Carcinoma", "value": 73, "unit": "%"}, {"measurement": "Uniformity Avg. (rated 0-3)", "setting": "[1]; Lung Squamous Cell Carcinoma", "value": 1.8}, {"measurement": "# Pos/Exam", "setting": "[1]; Lymphoma", "value": "0/2"}, {"measurement": "Intensity Avg. (rated 0-3)", "setting": "[1]; Lymphoma", "value": 0}, {"measurement": "Percent Avg. (cells stained)", "setting": "[1]; Lymphoma", "value": 0, "unit": "%"}, {"measurement": "Uniformity Avg. (rated 0-3)", "setting": "[1]; Lymphoma", "value": 0}, {"measurement": "# Pos/Exam", "setting": "[1]; Malignant Melanoma", "value": "0/11"}, {"measurement": "Intensity Avg. (rated 0-3)", "setting": "[1]; Malignant Melanoma", "value": 0}, {"measurement": "Percent Avg. (cells stained)", "setting": "[1]; Malignant Melanoma", "value": 0, "unit": "%"}, {"measurement": "Uniformity Avg. (rated 0-3)", "setting": "[1]; Malignant Melanoma", "value": 0}, {"measurement": "# Pos/Exam", "setting": "[1]; Malignant Melanoma Ocular", "value": "0/2"}, {"measurement": "Intensity Avg. (rated 0-3)", "setting": "[1]; Malignant Melanoma Ocular", "value": 0}, {"measurement": "Percent Avg. (cells stained)", "setting": "[1]; Malignant Melanoma Ocular", "value": 0, "unit": "%"}, {"measurement": "Uniformity Avg. (rated 0-3)", "setting": "[1]; Malignant Melanoma Ocular", "value": 0}, {"measurement": "# Pos/Exam", "setting": "[1]; Osteosarcoma", "value": "1/1"}, {"measurement": "Intensity Avg. (rated 0-3)", "setting": "[1]; Osteosarcoma", "value": 2}, {"measurement": "Percent Avg. (cells stained)", "setting": "[1]; Osteosarcoma", "value": 20, "unit": "%"}, {"measurement": "Uniformity Avg. (rated 0-3)", "setting": "[1]; Osteosarcoma", "value": 1}, {"measurement": "# Pos/Exam", "setting": "[1]; Ovarian Carcinoma", "value": "35/35"}, {"measurement": "Intensity Avg. (rated 0-3)", "setting": "[1]; Ovarian Carcinoma", "value": 2.9}, {"measurement": "Percent Avg. (cells stained)", "setting": "[1]; Ovarian Carcinoma", "value": 100, "unit": "%"}, {"measurement": "Uniformity Avg. (rated 0-3)", "setting": "[1]; Ovarian Carcinoma", "value": 2.2}, {"measurement": "# Pos/Exam", "setting": "[1]; Pancreas Carcinoma", "value": "6/6"}, {"measurement": "Intensity Avg. (rated 0-3)", "setting": "[1]; Pancreas Carcinoma", "value": 3}, {"measurement": "Percent Avg. (cells stained)", "setting": "[1]; Pancreas Carcinoma", "value": 100, "unit": "%"}, {"measurement": "Uniformity Avg. (rated 0-3)", "setting": "[1]; Pancreas Carcinoma", "value": 2.3}, {"measurement": "# Pos/Exam", "setting": "[1]; Prostate Carcinoma", "value": "9/9"}, {"measurement": "Intensity Avg. (rated 0-3)", "setting": "[1]; Prostate Carcinoma", "value": 2.8}, {"measurement": "Percent Avg. (cells stained)", "setting": "[1]; Prostate Carcinoma", "value": 95, "unit": "%"}, {"measurement": "Uniformity Avg. (rated 0-3)", "setting": "[1]; Prostate Carcinoma", "value": 2}, {"measurement": "# Pos/Exam", "setting": "[1]; Renal Carcinoma", "value": "8/9"}, {"measurement": "Intensity Avg. (rated 0-3)", "setting": "[1]; Renal Carcinoma", "value": 2.2}, {"measurement": "Percent Avg. (cells stained)", "setting": "[1]; Renal Carcinoma", "value": 83, "unit": "%"}, {"measurement": "Uniformity Avg. (rated 0-3)", "setting": "[1]; Renal Carcinoma", "value": 1}, {"measurement": "# Pos/Exam", "setting": "[1]; Synovial Sarcoma", "value": "0/1"}, {"measurement": "Intensity Avg. (rated 0-3)", "setting": "[1]; Synovial Sarcoma", "value": 0}, {"measurement": "Percent Avg. (cells stained)", "setting": "[1]; Synovial Sarcoma", "value": 0, "unit": "%"}, {"measurement": "Uniformity Avg. (rated 0-3)", "setting": "[1]; Synovial Sarcoma", "value": 0}, {"measurement": "# Pos/Exam", "setting": "[1]; Undifferentiated Carcinoma", "value": "1/1"}, {"measurement": "Intensity Avg. (rated 0-3)", "setting": "[1]; Undifferentiated Carcinoma", "value": 2}, {"measurement": "Percent Avg. (cells stained)", "setting": "[1]; Undifferentiated Carcinoma", "value": 90, "unit": "%"}, {"measurement": "Uniformity Avg. (rated 0-3)", "setting": "[1]; Undifferentiated Carcinoma", "value": 2}, {"measurement": "# Pos/Exam", "setting": "[1]; Uterine Leiomyosarcoma", "value": "0/1"}, {"measurement": "Intensity Avg. (rated 0-3)", "setting": "[1]; Uterine Leiomyosarcoma", "value": 0}, {"measurement": "Percent Avg. (cells stained)", "setting": "[1]; Uterine Leiomyosarcoma", "value": 0, "unit": "%"}, {"measurement": "Uniformity Avg. (rated 0-3)", "setting": "[1]; Uterine Leiomyosarcoma", "value": 0}, {"measurement": "safety in human clinical trials", "setting": "[2]", "value": "safely administered"}]}]}
